These results are taken from doi:10.1101/2023.04.17.537198, “Bitesize bundles F-actin and influences actin remodeling in syncytial Drosophila embryo development” (bioRxiv, 2025).

Test [1] concerns the target T1, Rabbit skeletal muscle actin, polymerised (F-actin) (rabbit, UniProt P68135 1-377). Nature of the test: co-sedimentation; high-speed pelleting: 0.5 uM BtszB-CT with 0, 0.1, 0.25, 0.5, 1, 2, 4 uM F-actin, 30 min at room temperature, 316,000 x g for 20 min at 25°C; supernatant and pellet on Coomassie gels, densitometry; BtszB-CT pelleted without F-actin subtracted; fit to a Hill equation (cooperative binding model). The note with it: both partners purified.

In test [2] the target is T1, Rabbit skeletal muscle actin, …. Nature of the test: cell-based or functional assay.

B1: C-terminal fragment of Bitesize isoform B (BtszB-CT) (domain or fragment)
chain: VKGQVEFAMQYNYKLSALEVHVVRCKDLAAVDAKRNRSDPYVKVYLLPDKSKAGKRKTKVKKHTLNPIFDETMRFHTPISSLESRTLWLTVWHSDMFGRNDFLGEVSVNLQGRLFDNPQSQWYLLQERSEPFDEVATYRGDIVVGLKYIPPENIKSSFFSRGSSITGSSSNLRKFGGSIKSVASKSERTSKGGQLHVLVKEAKHLSPIKANGTCDAFCKSYLLPDRTRSSKQKTPVVKRTLHPSWNYTFVYEDVSLEELSERALELTVWDHDRLASNEFVGGIRFSLGTGRSYGRQVEWMDATGKELSLWQNMLDRPNFWVEGSLVLRSSLDGIRANLP
As for B1, binding in test [1] was put at a Kd of 450 nM. Besides, the “TIRF microscopy bundling assay: filament/bundle fluorescence intensity at FWHM, normalised to the mean of the control reaction (2 uM F-actin), with 1 uM BtszB-CT” value in test [2] is 3.4 fold of the control reaction (2 uM F-actin).

The term Kd denotes the concentration at which binding is half-saturated. Low values mean higher affinity, high ones lower affinity.
